Reference: article PMC8826744

Target: recombinant furin, biotinylated (UniProt P09958)
Assay: BLI

Chain of recombinant furin, biotinylated (P09958 27-794): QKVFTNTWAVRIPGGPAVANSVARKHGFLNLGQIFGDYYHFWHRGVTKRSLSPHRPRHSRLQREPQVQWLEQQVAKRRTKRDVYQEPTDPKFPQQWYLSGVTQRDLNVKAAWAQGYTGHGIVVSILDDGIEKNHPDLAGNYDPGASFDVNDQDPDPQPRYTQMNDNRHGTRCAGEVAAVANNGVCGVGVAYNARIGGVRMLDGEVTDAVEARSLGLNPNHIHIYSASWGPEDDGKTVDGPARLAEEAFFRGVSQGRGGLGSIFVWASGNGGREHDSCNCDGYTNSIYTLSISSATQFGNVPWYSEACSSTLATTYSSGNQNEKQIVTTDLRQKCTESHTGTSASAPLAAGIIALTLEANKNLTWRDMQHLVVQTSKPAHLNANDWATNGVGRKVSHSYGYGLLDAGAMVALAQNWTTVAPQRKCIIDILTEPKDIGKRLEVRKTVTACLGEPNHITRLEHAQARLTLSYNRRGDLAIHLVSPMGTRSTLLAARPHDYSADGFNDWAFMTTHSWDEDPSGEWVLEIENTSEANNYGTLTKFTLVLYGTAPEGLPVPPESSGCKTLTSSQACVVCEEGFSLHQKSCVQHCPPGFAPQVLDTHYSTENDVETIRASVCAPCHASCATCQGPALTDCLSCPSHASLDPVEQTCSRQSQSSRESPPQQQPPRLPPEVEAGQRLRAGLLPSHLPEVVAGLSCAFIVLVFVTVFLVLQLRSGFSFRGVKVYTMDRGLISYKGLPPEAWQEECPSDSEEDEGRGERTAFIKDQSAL

With farletuzumab-FuG1 (antibody) the fold reduction of koff against farletuzumab-cFuG1 was 10 fold.
